Reference: publication PMC4169044

Biological target: 55S mitochondrial ribosome from pig liver mitochondria (pig (endogenous in pig liver mitochondria))
Assay: Western blotting of purified ribosomes against a protein standard; amount of integrated ICT1 on purified pig 55S ribosomes estimated with purified ICT1 as a standard

55S-integrated ICT1 of the pig mitoribosome (mitochondrial ribosomal protein L58) (natural protein)
stoichiometry N (ICT1 per 55S ribosome): 1
